One may read the Kd as a measure of binding affinity in units of concentration.

One test concerns the target Pfs48/45 (endogenous) (Plasmodium falciparum (endogenous in …, UniProt Q8I6T1)). In words: cryo-EM structure. Particulars: both partners purified.
Test [1] concerns the target T1, Pfs230 fused C-terminally with a 3xFLAG-C-tag (endogenous, parasite line iGP2^230-tag) (Plasmodium falciparum (endogenous in …, UniProt P68874)).
T1 construct: not shown: 3xFLAG, C-terminal, kept
The experiment in a line: native gel or EMSA. Particulars: both partners purified. In general terms: A gel shift assay detects complexes by their altered migration in electrophoresis.

Test [2] deals with T2, Pfs230:Pfs48/45 complex (endogenous, FLAG-tag purified) (Plasmodium falciparum (isolate 3D7)., UniProt P68874;Q8I6T1).
T2 construct: not shown: 3xFLAG, C-terminal, kept
The experiment in a line: native gel or EMSA. Particulars: both partners purified.

Test [3] has as its target T3, Pfs230D7 (recombinant, WT) (Plasmodium falciparum 3D7, UniProt P68874).
T3 construct: source: wheat germ cell-free extract WEPRO7240H with Disulfide Bond Enhancer Enzyme Set, purified (Ni Sepharose 6 Fast Flow)
The experiment in a line: SPR. Particulars: both partners purified.

Test [4] concerns the target T4, Pfs230 fused C-terminally with a 3xFLAG-C-tag (endogenous, parasite line iGP2^230-tag) (Plasmodium falciparum (endogenous in …, UniProt P68874 21-3135)).
T4 construct: not shown: 3xFLAG, C-terminal, kept
In words: affinity purification with mass spectrometry. Particulars: partners not purified.

T1 sequence (P68874 21-3135): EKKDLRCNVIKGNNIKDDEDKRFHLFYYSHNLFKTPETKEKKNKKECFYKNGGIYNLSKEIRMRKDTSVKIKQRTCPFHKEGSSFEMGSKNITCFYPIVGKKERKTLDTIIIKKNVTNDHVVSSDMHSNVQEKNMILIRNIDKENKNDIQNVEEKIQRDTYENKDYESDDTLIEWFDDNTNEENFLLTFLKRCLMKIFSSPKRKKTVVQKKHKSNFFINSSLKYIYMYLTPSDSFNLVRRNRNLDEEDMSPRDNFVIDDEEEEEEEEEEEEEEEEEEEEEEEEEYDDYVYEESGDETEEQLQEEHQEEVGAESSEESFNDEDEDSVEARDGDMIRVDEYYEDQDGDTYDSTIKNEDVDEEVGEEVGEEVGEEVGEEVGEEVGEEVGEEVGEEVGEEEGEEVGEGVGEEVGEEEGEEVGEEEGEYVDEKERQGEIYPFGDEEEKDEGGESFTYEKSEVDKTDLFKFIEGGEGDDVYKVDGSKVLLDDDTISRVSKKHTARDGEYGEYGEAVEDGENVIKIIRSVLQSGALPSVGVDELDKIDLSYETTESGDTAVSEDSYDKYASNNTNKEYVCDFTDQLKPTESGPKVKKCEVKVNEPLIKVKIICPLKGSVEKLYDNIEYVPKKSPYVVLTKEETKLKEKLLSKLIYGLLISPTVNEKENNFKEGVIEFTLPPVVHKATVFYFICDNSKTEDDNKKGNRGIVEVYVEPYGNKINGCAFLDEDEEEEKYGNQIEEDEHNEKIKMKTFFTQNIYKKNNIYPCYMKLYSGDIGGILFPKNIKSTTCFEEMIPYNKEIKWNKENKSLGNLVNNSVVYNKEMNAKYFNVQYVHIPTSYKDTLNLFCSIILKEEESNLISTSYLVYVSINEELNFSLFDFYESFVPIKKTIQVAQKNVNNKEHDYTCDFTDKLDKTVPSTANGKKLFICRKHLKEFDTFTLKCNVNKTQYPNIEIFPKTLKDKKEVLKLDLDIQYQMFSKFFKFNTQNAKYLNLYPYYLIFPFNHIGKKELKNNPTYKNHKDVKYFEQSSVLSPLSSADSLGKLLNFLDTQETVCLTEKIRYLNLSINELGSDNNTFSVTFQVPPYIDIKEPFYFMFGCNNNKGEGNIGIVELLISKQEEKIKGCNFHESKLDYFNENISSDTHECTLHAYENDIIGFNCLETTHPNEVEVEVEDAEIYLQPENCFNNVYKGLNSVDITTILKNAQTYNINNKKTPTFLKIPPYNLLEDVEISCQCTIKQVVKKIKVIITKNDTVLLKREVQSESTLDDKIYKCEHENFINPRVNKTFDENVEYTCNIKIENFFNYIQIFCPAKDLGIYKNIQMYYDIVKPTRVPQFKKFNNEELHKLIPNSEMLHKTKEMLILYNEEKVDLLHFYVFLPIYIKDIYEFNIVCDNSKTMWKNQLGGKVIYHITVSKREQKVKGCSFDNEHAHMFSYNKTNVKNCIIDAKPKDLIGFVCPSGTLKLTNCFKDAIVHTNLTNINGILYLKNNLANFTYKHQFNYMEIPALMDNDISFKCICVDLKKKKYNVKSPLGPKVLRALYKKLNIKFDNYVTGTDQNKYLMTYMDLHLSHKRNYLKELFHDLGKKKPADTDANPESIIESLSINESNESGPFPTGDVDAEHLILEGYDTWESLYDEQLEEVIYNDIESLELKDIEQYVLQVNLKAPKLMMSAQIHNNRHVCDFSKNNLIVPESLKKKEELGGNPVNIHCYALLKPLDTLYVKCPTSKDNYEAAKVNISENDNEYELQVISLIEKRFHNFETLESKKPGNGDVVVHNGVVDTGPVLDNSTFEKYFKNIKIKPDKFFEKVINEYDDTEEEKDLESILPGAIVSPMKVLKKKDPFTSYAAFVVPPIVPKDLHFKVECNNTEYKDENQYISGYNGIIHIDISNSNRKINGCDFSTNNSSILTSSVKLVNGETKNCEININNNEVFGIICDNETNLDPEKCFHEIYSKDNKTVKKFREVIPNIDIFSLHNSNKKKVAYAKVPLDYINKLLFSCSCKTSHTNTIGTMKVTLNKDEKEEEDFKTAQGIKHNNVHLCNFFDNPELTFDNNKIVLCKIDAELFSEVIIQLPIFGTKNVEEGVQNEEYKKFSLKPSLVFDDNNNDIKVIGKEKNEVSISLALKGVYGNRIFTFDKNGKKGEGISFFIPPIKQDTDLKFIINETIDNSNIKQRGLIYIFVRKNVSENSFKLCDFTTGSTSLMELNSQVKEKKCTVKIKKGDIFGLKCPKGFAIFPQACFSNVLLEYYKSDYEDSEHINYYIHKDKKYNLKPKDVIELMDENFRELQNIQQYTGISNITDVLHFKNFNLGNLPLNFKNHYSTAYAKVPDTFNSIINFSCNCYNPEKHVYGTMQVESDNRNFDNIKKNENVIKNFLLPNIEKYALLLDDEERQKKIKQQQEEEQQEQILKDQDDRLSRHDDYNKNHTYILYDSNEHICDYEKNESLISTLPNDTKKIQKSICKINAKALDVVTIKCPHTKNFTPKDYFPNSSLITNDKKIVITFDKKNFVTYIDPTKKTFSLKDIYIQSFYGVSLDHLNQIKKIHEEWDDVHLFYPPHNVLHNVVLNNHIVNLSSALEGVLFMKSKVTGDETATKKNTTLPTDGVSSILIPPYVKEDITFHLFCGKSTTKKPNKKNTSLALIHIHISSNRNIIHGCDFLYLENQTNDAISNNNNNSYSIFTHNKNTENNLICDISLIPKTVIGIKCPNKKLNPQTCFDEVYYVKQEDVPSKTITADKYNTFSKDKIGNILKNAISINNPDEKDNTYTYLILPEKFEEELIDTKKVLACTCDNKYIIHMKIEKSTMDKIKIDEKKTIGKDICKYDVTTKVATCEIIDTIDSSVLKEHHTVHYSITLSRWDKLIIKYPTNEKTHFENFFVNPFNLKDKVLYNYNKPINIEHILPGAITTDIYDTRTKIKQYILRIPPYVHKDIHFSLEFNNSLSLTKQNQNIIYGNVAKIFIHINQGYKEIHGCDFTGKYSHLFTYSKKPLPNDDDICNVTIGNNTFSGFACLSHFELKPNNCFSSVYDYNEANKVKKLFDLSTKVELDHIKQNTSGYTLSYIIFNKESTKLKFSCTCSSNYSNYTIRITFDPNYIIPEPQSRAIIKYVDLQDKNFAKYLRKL

B1: RUPA-44 Fab (Fab, V domains shown)
VH: QLQLQESGPGLVKPSETLSLTCTVSGGSISRSPYYWGWIRQPPGKGLEWFGSIYNNGSTYYNPPLKSRLTISVDTSKNQFSLKLSSVTAADTAVYYCARHGGSTGMKVVVIAPPDYWGQGTLVTVSS
VL: DIQMTQSPATLSASVGDRVTITCRASQSISSWLAWYQQKPGEAPKLLIYKASSLQSGVPSRFSGSGSGTKFSLTISSLQPDDFATFYCQQYHSYPYTFGQGTKLEIK
notes: source: Freestyle 293-F or 293-S cells, transfected, purified (KappaSelect, MonoS cation exchange)
For B1, in the test with Pfs48/45 (endogenous), the binding result is listed as “binds”.

B2: RUPA-47 Fab (Fab, V domains shown)
VH: QVQLVQSGAEVKKPGASVKLSCTASGYTFTNFGITWVRQAPGQGLEWMAWISVYSGDTDYAQRFQGRVTMTTDTSTRTAYMEMRSLSFDDTAVYYCVRGGRDSPILGGYWGQGTLVTVSS
VL: EIVLTQSPGTLSLSPGERVTLSCRASQSVRSMYLAWYQQKPGQAPRLLIHGASIRATGIPDRFSGSGSGTDFTLTISRLEREDFAVYYCHQYGSSPLTFGGGTKVESK
notes: as for B1
Turning to B2, the figures for the binding result in test [1] and in test [2] were “no binding (tested: tenfold molar excess Fab)” and “binds”, respectively.

B3: 18F25 Fab (Fab, V domains shown)
VH: QVQLQQSGAELARPGASVKLSCKASGYTFTNYWMQWVKQRPGQGLEWFGAIYPGDGDTRYTQKFKGKATLTADKSSSTAYMQLSSLASEDSAVYYCARSLYLGAMDYWGQGTSVTVSS
VL: DIVMTQSHKFMSTSVGDRVSITCKASQDVTNDVAWYQQKPGQSPKLLIYSASYRYTGVPDRFTGSGSGTDFIFTISSVQAEDLAVYYCQQHYSAPPTFGGGTKLEIK
notes: also called mAb 18F25; 18F25.1; source: Freestyle 293-F or 293-S cells, transfected, purified (KappaSelect, MonoS cation exchange)
Regarding B3, the equilibrium dissociation constant (Kd) in test [3] is 1.8 nM.

B4: RUPA-71 Fab (Fab, V domains shown)
VH: EEQLVESGGGLVKPGRSLRLSCSASGFTLGDYAVTWFRQASGKEPEWVGVIRTKDEGGTTEYAASVKGRFSILRDDSKSIAHLQMNSLKIEDTAVYYCTRNGLRWYDSSGPRGWAFDIWGPGTLVVVSS
VL: EIVMTQSPATVSVSPGERATLSCRTSQSVSNKLAWYQQKPGQAPRLLIYGASTRATGIPARFSGSGSGTQFTLTISSLQSEDFAVYYCQQYNNWPPWTFGRGTKVEIK
notes: as for B1
In the case of B4, the binding result (in the test with Pfs48/45 (endogenous); in test [2]) was “binds” in each case.

B5: 2A2 Fab (Fab, V domains shown)
VH: EVQLQQSGPELEKPGASVKISCKASGYSITDYNMNWVKLSNGKSLEWIGNIDPSHGGTTYNQKFKGKATLTVDKSSSTAYMQLKSLTSEDSAVYHCARSTLYGNSAMDCWGQGTSVTVSS
VL: SIVMTQTPKFLLVPAGDRVTITCKASQSVNNDVTWYQQKPGQSPKLLIYYASNRYTGVPDRFTGSGYGTDFTFTISTVQAEDLAVYFCQQDYSSPLTFGAGTKLEL
notes: also called mAb 2A2; 2A2.2a; source: Freestyle 293-F or 293-S cells, transfected, purified (KappaSelect, MonoS cation exchange)
On to B5, for which the binding result in test [1] was “binds”.

B6: Pfs48/45 (endogenous) (natural protein)
chain: NNDFCKPSSLNSEISGFIGYKCNFSNEGVHNLKPDMRERRSIFCTIHSYFIYDKIRLIIPKKSSSPEFKILPEKCFQKVYTDYENRVETDISELGLIEYEIEENDTNPNYNERTITISPFSPKDIEFFCFCDNTEKVISSIEGRSAMVHVRVLKYPHNILFTNLTNDLFTYLPKTYNESNFVSNVLEVELNDGELFVLACELINKKCFQEGKEKALYKSNKIIYHKNLTIFKAPFYVTSKDVNTECTCKFKNNNYKIVLKPKYEKKVIHGCNFSSNVSSKHTFTDSLDISLVDDSAHISCNVHLSEPKYNHLVGLNCPGDIIPDCFFQVYQPESEELEPSNIVYLDSQINIGDIEYYEDAEGDDKIKLFGIVGSIPKTTSFTCICKKDKKSAYMTVTID
With B6, the binding result in test [4] is listed as “binds”.

For the origin of these results see doi:10.1101/2025.02.14.638310 (bioRxiv, 2025).
